According to paper PMC6699855 (The Journal of Biological Chemistry, 2019):
“Also recorded” adds a separate entry of the source. Positions of bridges follow the written chain, without caps; N, C: chain ends. Non-standard residues stand in square brackets, D forms with d. Residues, ends and D or L forms follow the SMILES beside them.

Key:
[1] = Proteolytic stability in human plasma; type: in vitro ADME; settings: 100 μg in 100 μl human plasma, 37 °C, stopped with 20% TCA; for degradation in human plasma after 18 h: LC-MS/HPLC
Procedure: The proteolytic stability of full-length Evasin-3 and its variants was tested in pooled human plasma from healthy volunteers (Fig. S12A).
100 μg of Evasin-3 variants were dissolved in 100 μl of normal plasma taken from a healthy volunteer and incubated at 37 °C. At a required time point reaction was stopped by addition of 15 μl of 20% TCA to a 15-μl aliquot of a sample and analyzed by LC-MS.

[2] = test system: CXCL8-induced migration of polymorphonuclear neutrophils; test: PMN migration assay (chemotaxis chamber); type: cell-based; settings: 1 nM CXCL8 plus 10 nM variant; human neutrophils, 5-μm membrane, 90 min at 37 °C; n = 10 (Evasin-3), 9 (tEv3 17–56), 5 (tcEv3 16–56 dPG); CXCL8 alone 624 ± 458, control 98 ± 83
Procedure: To assess the anti-CXCL8 activity of Evasin-3 variants, polymorphonuclear neutrophil (PMN) migration assays were performed. The addition of 1 nM CXCL8 induced significant migration of PMNs (624 ± 458 PMN/mm^2) compared with controls (98 ± 83 PMN/mm^2) in the absence of chemoattractant (Fig. 6). Migration was inhibited by addition of 10 nM of Evasin-3 (206 ± 203 PMN/mm^2).
Human neutrophils were isolated from the blood of healthy donors as described previously ([57]). Isolated neutrophils were resuspended at (10^6 cells/ml) in RPMI 1640 medium supplemented with 1% fetal calf serum. A 12-well chemotaxis chamber with a 5-μm polycarbonate membrane (Neuroprobe, Gaithersburg, MD) was used to assess the migration of neutrophils toward the chemoattractant CXCL8 (1 nM) in presence or absence of Evasin-3 variants (10 nM). The chemoattractant was added in the lower wells, and the neutrophils (1 × 10^5 cells) were seeded in the upper wells. After incubation of 90 min at 37 °C, the nonmigrated cells were carefully removed, and the membrane was stained with Diff-Quick stain (Eberhard Lehmann GmbH, Berlin, Germany). Migrated cells were visualized by light microscopy, counted manually in three fields of view, and expressed as cells/mm^2. The data were analyzed by GraphPad Prism 8.0 software using one-way analysis of variance statistical test.

[3] = biological target: human CXCL8 (interleukin-8), recombinant, residues 6–77 (human); test: SEC; protein alone at 0.1 mg/ml; BioSep SEC-s2000; 50 mM sodium phosphate pH 6.65, 150 mM NaCl; masses from the maker's calibration curve
[4] = pooled human plasma from healthy volunteers; settings: 37 °C, up to 18 h
[5] = biological target: human CXCL8 (interleukin-8), recombinant, residues 6–77 (human); test: NMR titration
[6] = biological target: T1, chemically synthetized CXCL8-Biotin (C-terminally biotinylated human CXCL8) (human, UniProt P10145 28-99, biotin at the C-terminus); test: SPR; settings: both partners purified
T1 construct: also called immobilized human CXCL8; source: chemically synthetized; not shown: biotin, C-terminal, kept
T1 sequence (looked up): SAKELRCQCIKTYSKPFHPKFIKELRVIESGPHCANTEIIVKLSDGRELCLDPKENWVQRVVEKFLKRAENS

human CXCL8 = biological target: T2, human CXCL8 (Homo sapiens, UniProt P10145); test: SPR biosensor affinity to immobilized CXCL8; type: binding; settings: SPR sensorgrams; association 250 s, dissociation 300 s, 30 μl/min; PBS pH 7.4, 0.05% Tween 20
T2 construct: made in house; host or cells: chemical synthesis (no expression host)
T2 sequence (P10145 21-99): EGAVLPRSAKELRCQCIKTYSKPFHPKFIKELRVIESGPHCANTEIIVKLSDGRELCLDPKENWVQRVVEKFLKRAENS

CXCL8 = settings: binding to CXCL8; read-out: Kd value previously measured; cited from earlier work
Text: In contrast to Evasin-1, where both the N and C termini play a crucial role in chemokine binding ([27], [38]), neither the N nor C terminus of Evasin-3 participate in CXCL8 binding. […] To study the effect of termini on binding, we synthesized two novel CXCL8-binding peptides: linear tEv3 17–56 and cyclic tcEv3 16–56 dPG, both retaining the ICK bundled core of the native protein. The ...

[7] = biological target: T3, CXCL8–GAG (fondaparinux) complex (Homo sapiens, UniProt P10145); test: GAG competition for [15N,13C]CXCL8 binding by NMR; settings: 30 μM met-Evasin-3 added to 25 μM [15N,13C]CXCL8 with fondaparinux (up to 10-fold excess), 25 °C, pH 7.1; 15N-1H HSQC
T3 construct: human CXCL8 (UniProt: p10145, 6–77); made in house; host or cells: E. coli BL21 (DE3) Star
T3 sequence (P10145 28-99): T1 sequence (looked up)
Text: To study competition between Evasin-3 and GAGs for CXCL8 binding, [^15N,^13C]CXCL8 was first titrated with increasing concentrations of dalteparin (Fragmin®, Pfizer) and low-molecular-mass heparin with the average molecular mass of 5 kDa. […] Fondaparinux (Arixtra®, GSK), which comprises the five central sulfated sugar units in heparin, has the well-defined composition and the lower molecular mass (1.7 kDa) comparing with Fragmin. For that reason, fondaparinux facilitates collection of NMR spectra of higher quality and was chosen for further NMR titration experiments. […] Observed changes were consistent with results of previous studies describing the interaction of CXCL8 with several heparin oligosaccharides ([29]).
For GAG-binding experiments low-molecular-mass heparin dalteparin (commercial name Fragmin®, Pfizer) and fondaparinux (commercial name Arixtra®, GSK) were purchased from a pharmacy as solutions for injections. 25 μM of [^15N,^13C]CXCL8 was titrated by increasing concentration of aliquots from a stock solution of 5 mg/ml fondaparinux or Fragmin to the final GAG concentration of 0.2 mM at 25 °C, pH 7.1. In the next step, 30 μM of met-Evasin-3 was added to the solution to monitor the displacement of bound fondaparinux and follow Evasin-3–CXCL8 complex formation by a series of 1D proton and ^15N-^1H HSQC spectra.

[8] = biological target: human CXCL8 (interleukin-8), recombinant, residues 6–77 (human); test: NMR titration; [15N,13C]CXCL8 (200 μM) titrated with unlabelled met-Evasin-3; 15N-1H HSQC and filtered NOESY; 25 mM NaAc-d3 pH 4.5, 37 °C; equilibrium after up to 1 h

cyclo(CFCGLLGQNKKGHCYKIIGN[dP]GNFDVVSCNKNCTSGQNECPEG) (disulfide 1-29, 3-33, 14-40) [tcEv3 16–56 dPG]
degradation in human plasma after 18 h [1]: equally high proteolytic stability | PMN migration in presence of Evasin-3 variant [2]: 160 ± 65 PMN/mm^2

CC[C@H](C)[C@H](NC(=O)[C@H](CCCCN)NC(=O)[C@H](Cc1ccc(O)cc1)NC(=O)[C@@H]1CSSC[C@@H]2NC(=O)[C@H](CCC(=O)O)NC(=O)[C@H](CC(N)=O)NC(=O)[C@H](CCC(N)=O)NC(=O)CNC(=O)[C@H](CO)NC(=O)[C@H]([C@@H](C)O)NC(=O)[C@@H]3CSSC[C@H](NC(=O)[C@H](Cc4ccccc4)NC(=O)[C@H](CSSC[C@H](NC(=O)[C@H](CO)NC(=O)[C@@H](NC(=O)[C@@H](NC(=O)[C@H](CC(=O)O)NC(=O)[C@@H](N)Cc4ccccc4)C(C)C)C(C)C)C(=O)N[C@@H](CC(N)=O)C(=O)N[C@@H](CCCCN)C(=O)N[C@@H](CC(N)=O)C(=O)N3)NC(=O)CNC(=O)[C@H](CCC(=O)O)NC(=O)[C@@H]3CCCN3C2=O)C(=O)NCC(=O)N[C@@H](CC(C)C)C(=O)N[C@@H](CC(C)C)C(=O)NCC(=O)N[C@@H](CCC(N)=O)C(=O)N[C@@H](CC(N)=O)C(=O)N[C@@H](CCCCN)C(=O)N[C@@H](CCCCN)C(=O)NCC(=O)N[C@@H](Cc2c[nH]cn2)C(=O)N1)C(=O)N[C@H](C(=O)NCC(=O)N[C@@H](CC(N)=O)C(=O)O)[C@@H](C)CC [tEv3 17–56] (H-FDVVSCNKNCTSGQNECPEGCFCGLLGQNKKGHCYKIIGN-OH; disulfide 6-21, 10-23, 17-34)
degradation in human plasma after 18 h [1]: equally high proteolytic stability

human CXCL8 (interleukin-8), recombinant, residues 6–77 (natural protein)
stoichiometry N [3]: 2

LVSTIESRTSGDGADNFDVVSCNKNCTSGQNECPEGCFCGLLGQNKKGHCYKIIGNLSGEPPVVRR
cleaved bond [4]: Arg65-Arg66, 2 h; also recorded: V64-Arg65, 2 h

truncated Evasin-3 (tEv3 17–56) (from UniProt P0C8E8 37-76) (peptide)
stoichiometry N [5]: 1

B1: truncated cyclic Evasin-3 16–56 with a D-Pro-Gly turn (tcEv3 16–56 dPG) (peptide)
chain: cyclo(NFDVVSCNKNCTSGQNECPEGCFCGLLGQNKKGHCYKIIGN[dP]G)
modifications: ends not checked
Kd [6]: 13 nM

B2: truncated Evasin-3 (tEv3 17–56) (peptide)
chain: FDVVSCNKNCTSGQNECPEGCFCGLLGQNKKGHCYKIIGN
Kd [6]: 27 nM

B3: Evasin-3: small salivary chemokine-binding protein from the brown dog tick Rhipicephalus sanguineus (UniProt p0c8e8, 1–66) (protein)
chain: LVSTIESRTSGDGADNFDVVSCNKNCTSGQNECPEGCFCGLLGQNKKGHCYKIIGNLSGEPPVVRR
association and dissociation kinetics compared with truncated variants (human CXCL8): slower association and dissociation kinetics | degradation in human plasma after 2 h ([1]; 2 h, LC-MS): degraded nearly quantitatively | degradation in human plasma after 18 h [1]: only ΔC2 could be detected | Kd (CXCL8): 0.43 nM | PMN migration in presence of Evasin-3 variant [2]: 206 ± 203 PMN/mm^2

B4: met-Evasin-3 (Evasin-3 1–66 with an N-terminal methionine) (natural protein)
chain: MLVSTIESRTSGDGADNFDVVSCNKNCTSGQNECPEGCFCGLLGQNKKGHCYKIIGNLSGEPPVVRR
effect on GAG binding of CXCL8 [7]: completely abolished GAG binding | stoichiometry N [8]: 1
